Test results published in patent US20260049134A1 (UNIVERSITY OF FLORIDA RESEARCH FOUNDATION, published 2026).

T1: SLAMF7
T1 construct: coated protein in the ELISA; also called SLAMF7-StrepTag
T1 chain: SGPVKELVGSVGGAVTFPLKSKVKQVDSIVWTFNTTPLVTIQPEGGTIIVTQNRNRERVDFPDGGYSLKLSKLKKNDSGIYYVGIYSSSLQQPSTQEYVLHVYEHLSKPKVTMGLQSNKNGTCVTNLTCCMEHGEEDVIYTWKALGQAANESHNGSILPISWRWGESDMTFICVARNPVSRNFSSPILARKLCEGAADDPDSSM

T2: GARS, endogenous in H929 multiple myeloma cells (human, UniProt P41250 37-739, limits assumed)
T2 construct: Native protein pulled down from H929 lysates; also called Glycyl-tRNA synthetase; GlyRS
T2 sequence: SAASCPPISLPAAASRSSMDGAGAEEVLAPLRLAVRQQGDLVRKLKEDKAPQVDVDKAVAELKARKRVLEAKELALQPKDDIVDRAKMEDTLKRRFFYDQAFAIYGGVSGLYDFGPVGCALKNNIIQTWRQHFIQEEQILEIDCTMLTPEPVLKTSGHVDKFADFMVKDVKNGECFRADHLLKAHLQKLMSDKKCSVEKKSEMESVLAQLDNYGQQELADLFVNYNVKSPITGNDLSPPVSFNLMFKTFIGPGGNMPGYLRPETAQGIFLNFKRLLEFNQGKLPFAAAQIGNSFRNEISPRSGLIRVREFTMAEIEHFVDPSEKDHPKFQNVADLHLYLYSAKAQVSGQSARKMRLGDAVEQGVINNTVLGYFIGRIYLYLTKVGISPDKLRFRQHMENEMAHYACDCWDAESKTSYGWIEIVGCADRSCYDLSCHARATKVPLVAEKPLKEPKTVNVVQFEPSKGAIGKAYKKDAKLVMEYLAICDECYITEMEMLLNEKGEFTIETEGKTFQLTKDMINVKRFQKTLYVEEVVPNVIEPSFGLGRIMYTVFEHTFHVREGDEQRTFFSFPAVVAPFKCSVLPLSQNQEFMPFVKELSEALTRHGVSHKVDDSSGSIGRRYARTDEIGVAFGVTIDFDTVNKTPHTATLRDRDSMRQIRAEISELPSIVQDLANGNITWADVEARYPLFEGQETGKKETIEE

T3: CADM1-His (Acro Biosystems) (human, UniProt Q9BY67 45-374)
T3 construct: Bought; also called CADM1/IGSF4A; not shown: His tag of the bought protein
T3 sequence: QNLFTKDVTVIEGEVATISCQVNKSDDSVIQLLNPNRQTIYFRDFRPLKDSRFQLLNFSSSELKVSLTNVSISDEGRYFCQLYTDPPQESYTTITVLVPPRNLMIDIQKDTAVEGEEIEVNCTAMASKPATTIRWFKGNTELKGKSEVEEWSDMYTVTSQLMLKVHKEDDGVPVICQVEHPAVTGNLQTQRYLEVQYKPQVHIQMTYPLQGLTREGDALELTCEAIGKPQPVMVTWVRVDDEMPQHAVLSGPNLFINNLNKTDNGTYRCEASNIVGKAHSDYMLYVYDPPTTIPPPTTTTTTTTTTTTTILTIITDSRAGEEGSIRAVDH


How the values were obtained:
[1] = molecular target: T1, SLAMF7; test: ELISA on coated SLAMF7-StrepTag
Description: Recombinant purified ECDs (50-150 ng) of each putative target protein were coated, incubated with 150 ng of the indicated primary antibody, and binding was detected using a peroxidase-conjugated anti-human Fab secondary antibody. Heatmap represents averages of technical triplicates. (8B) Target validation via siRNA knockdown. H929 cells were transfected with siRNA pools targeting the putative antibody targets ICAM1, CADM1, and PTPRG. Cells were then subjected to cognate IgG binding analysis via flow cytometry. (NT, non-targeting siRNA).
ELISA ELISA was conducted as described previously. Briefly, 50-150 ng of antigen was coated overnight in half-area 96-well plates at 4° C., blocked with 3% BSA at 37° C. for 1 h, and 150 ng of chimeric rabbit/human IgG1 was added, incubating for 2 h at 37° C. […] After incubating at 37° C. for 15 min-1 h (depending on intensity of controls), data were acquired using a SpectraMax M5 plate reader (Molecular Devices).

[2] = molecular target: T4, PTPRG, endogenous in H929 multiple myeloma cells (human, UniProt P23470 20-1445); test: flow cytometry, H929 + ICAM1 siRNA; None 1.06
T4 construct: Native protein on H929 cells (flow cytometry, siRNA knockdown) and in H929 lysates (IP/MS); also called phosphatase receptor type γ
T4 sequence (P23470 20-1445 limits assumed): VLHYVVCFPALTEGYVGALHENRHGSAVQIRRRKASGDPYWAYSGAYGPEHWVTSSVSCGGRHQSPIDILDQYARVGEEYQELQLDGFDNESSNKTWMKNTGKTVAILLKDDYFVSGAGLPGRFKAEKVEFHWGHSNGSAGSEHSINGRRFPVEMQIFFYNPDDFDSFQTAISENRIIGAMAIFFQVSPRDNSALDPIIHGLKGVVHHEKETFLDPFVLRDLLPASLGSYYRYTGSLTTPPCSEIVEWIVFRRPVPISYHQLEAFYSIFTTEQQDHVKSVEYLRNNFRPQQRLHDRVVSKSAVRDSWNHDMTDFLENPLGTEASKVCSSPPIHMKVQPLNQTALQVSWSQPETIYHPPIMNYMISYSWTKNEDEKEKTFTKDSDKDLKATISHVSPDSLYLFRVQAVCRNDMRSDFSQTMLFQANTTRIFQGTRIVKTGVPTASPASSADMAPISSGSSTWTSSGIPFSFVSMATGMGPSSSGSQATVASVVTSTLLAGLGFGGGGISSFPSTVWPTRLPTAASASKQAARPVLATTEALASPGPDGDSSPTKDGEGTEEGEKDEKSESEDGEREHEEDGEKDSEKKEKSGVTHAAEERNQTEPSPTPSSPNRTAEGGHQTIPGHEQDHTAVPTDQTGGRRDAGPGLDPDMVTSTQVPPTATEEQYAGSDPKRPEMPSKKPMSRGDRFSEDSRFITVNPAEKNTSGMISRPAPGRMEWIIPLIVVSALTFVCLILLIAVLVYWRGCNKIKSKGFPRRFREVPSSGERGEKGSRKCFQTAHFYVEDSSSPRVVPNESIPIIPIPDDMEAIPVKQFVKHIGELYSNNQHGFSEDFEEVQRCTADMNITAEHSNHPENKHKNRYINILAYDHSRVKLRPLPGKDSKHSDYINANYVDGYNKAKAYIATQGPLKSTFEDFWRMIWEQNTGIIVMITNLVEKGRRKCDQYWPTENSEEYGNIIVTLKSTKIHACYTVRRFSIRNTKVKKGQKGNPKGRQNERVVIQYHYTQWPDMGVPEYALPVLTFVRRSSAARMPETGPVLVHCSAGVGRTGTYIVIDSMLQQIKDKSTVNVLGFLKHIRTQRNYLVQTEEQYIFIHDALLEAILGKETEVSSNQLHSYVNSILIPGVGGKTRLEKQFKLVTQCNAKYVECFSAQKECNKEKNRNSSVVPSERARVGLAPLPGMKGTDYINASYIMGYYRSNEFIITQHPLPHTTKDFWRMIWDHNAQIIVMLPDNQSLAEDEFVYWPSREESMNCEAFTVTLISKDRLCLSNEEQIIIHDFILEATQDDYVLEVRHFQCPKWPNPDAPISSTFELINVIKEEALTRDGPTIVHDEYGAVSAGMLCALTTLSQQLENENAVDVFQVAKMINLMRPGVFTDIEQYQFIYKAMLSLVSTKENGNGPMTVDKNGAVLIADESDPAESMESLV

[3] = molecular target: T2, GARS, endogenous in H929 multiple …; test: flow cytometry, H929 + GARS siRNA (siRNA against the putative target); None 0.2
[4] = molecular target: T2, GARS, endogenous in H929 multiple …; test: flow cytometry, H929 + NT Green siRNA; None 416; surface target GARS putative
[5] = molecular target: T3, CADM1-His (Acro Biosystems); test: ELISA on coated protein

Row | Binder | Cells stained (%) [2] [%] | Cells stained (%) [3] [%] | mAb binding (MFI) [4] | binding result [1] | binding result [5]
1 | HW-42 chimeric rabbit-human IgG1 LA/LA/PG (antibody, V domains shown, Fc-silenced (L234A/L235A/P329G) IgG1, lambda; Alexa Fluor 647-labeled in single-step flow cytometry; Cluster C-1) VH: QSVKESEGGLFKPADTLTLTCTVSGFSLSSNEISWVRQAPGEGLEYIGIIDTGGRAYYAVWARSRSTITRNTNLNTVTLKMTSLTAADTATYFCARGGVDTEWYAFSSWGPGTLVTVPS VL: SFVLTQPASVQVNLGQTVSLTCTADTLSRRYASWYQQKPGQAPVLLIFRDTSRPSGVPDRFSGSSSGDTATLTISGAQAGDEADYYCATSDGSGSNYQYVFGGGTQLTVTG | 96.9 | – | – | no binding (tested: 150 ng IgG1 per well) | –
2 | HW-28 chimeric rabbit-human IgG1 LA/LA/PG (antibody, V domains shown, Fc-silenced (L234A/L235A/P329G) IgG1, lambda; Alexa Fluor 647-labeled in single-step flow cytometry; Cluster C-45) VH: QKQLVESGGRLVTPGTPLTLTCTASGFSLSSNAMSWVRQAPGEGLQWIGTISSGGSTYYASWAKGRFTISKTSTTVTLKMTSLTTEDTATYFCARGADLHRLWGPGTLVTVSS VL: SFVLTQPASVQVNLGQTVSLTCTGKPLSRSFASWYQQKPGQAPVLVIYRDTSRPSGVPDRFSGSSSGNTATLTISGAQAGDEADYYCATSDGSGSSYQYVFGGGTQLTVTG | – | 98.3 | 50700 | – | –
3 | HW-45 chimeric rabbit-human IgG1 LA/LA/PG (antibody, V domains shown, Fc-silenced (L234A/L235A/P329G) IgG1, lambda; Alexa Fluor 647-labeled in single-step flow cytometry; Prototype of cluster C-45) VH: QKQLVESGGRLVTPGTPLTLTCTVSGFSLSSYAMGWFRQAPGKGLEWIGIINSYGSTYYASWAKGRFTISKTSTTVDLKITSPTTEDTATYFCGRRIGSARFDPWGPGTLVTVSS VL: SFVLTQPASVQVNLGQTVSLTCTADTLSRSYASWYQQKPGQAPVLLIYRDTRRPSGVPDRFSGSSSGNTATLTISGAQAGDEADYYCATSDGSGSSYRLVFGGGTQLTVTG | – | 98.5 | 29500 | – | –
4 | HW-81 chimeric rabbit-human IgG1 LA/LA/PG (antibody, V domains shown, Fc-silenced (L234A/L235A/P329G) IgG1, lambda; Alexa Fluor 647-labeled in single-step flow cytometry; Cluster C-45) VH: QKQLVESGGGLVTPGGTLTLTCTVSGFSLSSNGVSWVRQAPGKGLEYIGLIRSIGSTYYATWAKGRFTISKTSTTVDLKITSPTTEDTATYFCARGGYRNGFKLWGPGTLVTVSS VL: QPVLTQSPSVSAALGASAKLTCTLSSAHKTYYIEWYQQQHPGKAPRYLMQLQSDGSYTKGTGVPDRFSGSSSGADRYLIISSVQAEDEADYICGVIDSAVYVFGGGTQLTVTG | – | 99.4 | 693000 | no binding (tested: 150 ng IgG1 per well) | –
5 | HW-16 chimeric rabbit-human IgG1 LA/LA/PG (antibody, V domains shown, Fc-silenced (L234A/L235A/P329G) IgG1, kappa; Alexa Fluor 647-labeled in single-step flow cytometry; Cluster C-45) VH: QSLEESGGRLVTPGTPLTLTCTASGFSLSSYAMSWVRQAPGKGLEWIGTMPTGGGTYYASWAKGRFTISKTSTTVDLQITSPTTEDTATYFCAKHWNIWGPGTLVTISS VL: DIVLTQTPSSTSTAVGDTVTINCRASQSIGRNLAWFQQKPGQPPKLLIYRASNLASGVPSRFKGSGSRTQFTLTISGVQREDAATYYCLGSYSSSDTAFGGGTELEILR | – | 99.1 | 59500 | – | –
6 | TH9-0022 (antibody, human IgG1, kappa, L234A L235A, V domains shown, also called TH9-022; negative control) VH: QSLEESGGRLVTPGTPLTLTCTVSGFSLSSYAMNWVRQAPGKGLEWIGIINSYGSTYYASWAKGRFTISKTSTTVDLKITSPTTEDTATYFCARVTYDSYGYGYAPYGMDLWGPGTLVTVSS VL: LVMTQTPSSTSNAVGGTVTIKCQASQSIGNVLAWYQQKPGQPPKLLIYAASTLASGVPSRVGGSRSGTEYTLTISGVQREDAATYYCLGSDSDSDIAFGGGTELEILR | – | – | – | no binding (tested: 150 ng IgG1 per well) | –
7 | HW-56 chimeric rabbit-human IgG1 LA/LA/PG (antibody, V domains shown, Fc-silenced (L234A/L235A/P329G) IgG1, kappa; Alexa Fluor 647-labeled in single-step flow cytometry; Cluster C-45) VH: QSVKESEGGLFKPTDTLTLTCTASGFTVSTNAVTWVRQAPGNGLEYIGTIGRSGSAYFASWAKRRSTLTRDINLNTVTLKMTSLTAADTATYFCVRGSPGYRTAISIWGPGTLVTISS VL: AVMTQTPSSTSAAVEGTVTINCQASQSISNRLSWFQQKPGQPPKLLIYQASTLASGVPSRFKGSGSGTEFTLTISGVQREDAATYYCLGSYSSSDASFGGGTKLEIKR | – | 99.9 | 499000 | – | –

Further lines, with some results ahead:

Row | Cells stained (%) [2] [%] | Cells stained (%) [3] [%] | mAb binding (MFI) [4] | Binder | binding result [1] | binding result [5]
8 | 97.4 | – | – | HW-70 chimeric rabbit-human IgG1 LA/LA/PG (antibody, V domains shown, Fc-silenced (L234A/L235A/P329G) IgG1, lambda; Alexa Fluor 647-labeled in single-step flow cytometry; Cluster C-1) VH: QSLEESGGRLVTPGTPLTLTCTVSGFSLSSNAMSWVRQAPGKGLEWIGTIDGYGYTYYASWAKGRFTVSKTSTTVDLKITSPTTEDTATYFCAREIYLGSNFWGPGTLVTISS VL: SFVLTQPASVQVNLGQTVSLTCTADTLSRRYASWYQQKPGQAPVLLIYRDTSRPSGVPDRFSGSSSGNTATLTISGAQAGDEADYYCATADGSGSSYQFVFGGGTQLTVTG | no binding (tested: 150 ng IgG1 per well) | –
9 | 98.2 | – | – | HW-1 chimeric rabbit-human IgG1 LA/LA/PG (antibody, V domains shown, Fc-silenced (L234A/L235A/P329G) IgG1, lambda; Alexa Fluor 647-labeled in single-step flow cytometry; Prototype of cluster C-1) VH: QSLEESGGGLFKPTDTLTLTCTASGFSLGSSYAISWVRQAPGKELEWIGTIDSGRAYYARWAKSRSTITRNTNENTVTLKMTSLTAADTATYFCARDLIPTYSQDIWGPGTLVTISS VL: SFVLTQPASVQVNLGQTVSLTCTADTLSRRYASWYQQKPGQAPVLLIYRDTSRPSGVPDRFSGSSSGNTATLTISGAQAGDEADYYCATSDGSGNSYQYVFGGGTQLTVTS | no binding (tested: 150 ng IgG1 per well) | no binding (tested: 150 ng IgG1 per well)
10 | 98.4 | – | – | HW-17 chimeric rabbit-human IgG1 LA/LA/PG (antibody, V domains shown, Fc-silenced (L234A/L235A/P329G) IgG1, lambda; Alexa Fluor 647-labeled in single-step flow cytometry; Cluster C-1) VH: QSLGESRGRLVTPDETLTLTCTVSGIDLSSNAMSWVRQAPGEGLEWIGTINTGGRAYYASWAKGRFTISRTSTTVDLKMTSLTTEDTATYFCARERYSDGRAYDIWGPGTLVTISS VL: SFVLTQPASVQVNLGQTVSLTCTADTLSRRYASWYQQKPGQAPVLLIYTDSNRPSGIPDRFSGSSSGNTATLTISGAQAGDEADYYCATDDGSGSIYQYVFGGGTQLTVTG | no binding (tested: 150 ng IgG1 per well) | no binding (tested: 150 ng IgG1 per well)
11 | 97.2 | – | – | HW-25 chimeric rabbit-human IgG1 LA/LA/PG (antibody, V domains shown, Fc-silenced (L234A/L235A/P329G) IgG1, lambda; Alexa Fluor 647-labeled in single-step flow cytometry; Cluster C-1) VH: QSLEESGGRLVTPGTPLTLTCTVSGFSLSSYAMGWVRQAPGKGLEWIGIIDSRGSTYYATWAKGRFTISKTSTTVDLKITSPTTEDTATYFCAREDSYYYDSFNLWGPGTLVTVSS VL: SFVLTQPASVQVNLGQTVSLTCTADTLSRRYASWYQQKPGQAPVLLIYRDTSRPSGVPDRFSGSSSGNTATLTISGAQAGDEADYYCATSDGSGSSYQCVFGGGTQLTVTG | no binding (tested: 150 ng IgG1 per well) | –
